Patent publication US20200165325A1

How the values were obtained:
[1] = target: HIV-1 Env of strain Ce2010_F5 (HIV-1)
[2] = target: HIV-1 Env of strain ZM247v1(Rev-) (HIV-1)
[3] = target: HIV-1 Env of strain ZM214M.PL15 (HIV-1)
[4] = target: HIV-1 Env of strain RHPA4259.7 (HIV-1)
[5] = target: HIV-1 Env of strain C2101.c01 (HIV-1)
[6] = target: HIV-1 Env of strain 3718.v3.c11 (HIV-1)
[7] = target: HIV-1 Env of strain 89-F1_2_25 (HIV-1)
[8] = target: HIV-1 Env of strain TRJO4551.58 (HIV-1)
[9] = target: HIV-1 Env of strain CNE30 (HIV-1)
[10] = target: HIV-1 Env of strain ZM109F.PB4 (HIV-1)
[11] = target: HIV-1 Env of strain C3347.c11 (HIV-1)
[12] = target: HIV-1 Env of strain 3016.v5.c45 (HIV-1)
[13] = target: HIV-1 Env of strain ZM135M.PL10a (HIV-1)
[14] = target: HIV-1 Env of strain TRO.11 (HIV-1)
[15] = target: HIV-1 Env of strain P1981_C5_3 (HIV-1)
[16] = target: HIV-1 Env of strain Ce2060_G9 (HIV-1)
[17] = target: HIV-1 Env of strain T257-31 (HIV-1)
[18] = target: HIV-1 Env of strain HIV-16845-2.22 (HIV-1)
[19] = target: HIV-1 Env of strain 620345.c01 (HIV-1)
[20] = target: HIV-1 Env of strain REJO4541.67 (HIV-1)
[21] = target: HIV-1 Env of strain Q259.d2.17 (HIV-1)
[22] = target: HIV-1 Env of strain 703357.C02 (HIV-1)
[23] = target: HIV-1 Env of strain WEAU_d15_410_787 (HIV-1)
[24] = target: HIV-1 Env of strain 1006_11_C3_1601 (HIV-1)
[25] = target: HIV-1 Env of strain 62357_14_D3_4589 (HIV-1)
[26] = target: HIV-1 Env of strain 6535.3 (HIV-1)
[27] = target: HIV-1 Env of strain ZM53M.PB12 (HIV-1)
[28] = target: HIV-1 Env of strain CNE53 (HIV-1)
[29] = target: HIV-1 Env of strain 928-28 (HIV-1)
[30] = target: HIV-1 Env of strain ZM249M.PL1 (HIV-1)
[31] = target: HIV-1 Env of strain Ce0393_C3 (HIV-1)
[32] = target: HIV-1 Env of strain 1054_07_TC4_1499 (HIV-1)
[33] = target: HIV-1 Env of strain 1056_10_TA11_1826 (HIV-1)
[34] = target: HIV-1 Env of strain CNE58 (HIV-1)
[35] = target: HIV-1 Env of strain T250-4 (HIV-1)
[36] = target: HIV-1 Env of strain 3415.v1.c1 (HIV-1)
[37] = target: HIV-1 Env of strain CNE20 (HIV-1)
[38] = target: HIV-1 Env of strain CNE17 (HIV-1)
[39] = target: HIV-1 Env of strain QH0692.42 (HIV-1)
[40] = target: HIV-1 Env of strain Q769.d22 (HIV-1)
[41] = target: HIV-1 Env of strain Q23.17 (HIV-1)
[42] = target: HIV-1 Env of strain ZM197M.PB7 (HIV-1)
[43] = target: HIV-1 Env of strain 211-9 (HIV-1)
[44] = target: HIV-1 Env of strain WITO4160.33 (HIV-1)
[45] = target: HIV-1 Env of strain THRO4156.18 (HIV-1)
[46] = target: HIV-1 Env of strain C1080.c03 (HIV-1)
[47] = target: HIV-1 Env of strain 3301.v1.c24 (HIV-1)
[48] = target: HIV-1 Env of strain R1166.c01 (HIV-1)
[49] = target: HIV-1 Env of strain R2184.c04 (HIV-1)
[50] = target: HIV-1 Env of strain T278-50 (HIV-1)
[51] = target: HIV-1 Env of strain P0402_c2_11 (HIV-1)
[52] = target: HIV-1 Env of strain ZM233M.PB6 (HIV-1)
[53] = target: HIV-1 Env of strain 231965.c01 (HIV-1)
[54] = target: HIV-1 Env of strain Du172.17 (HIV-1)
[55] = target: HIV-1 Env of strain Ce0682_E4 (HIV-1)
[56] = target: HIV-1 Env of strain T255-34 (HIV-1)
[57] = target: HIV-1 Env of strain Du422.1 (HIV-1)

Substance: NIH45-46 IgG (wild type) (antibody)
- In vitro neutralization IC80 [1]: 0.357 µg/mL
- In vitro neutralization IC80 [2]: 24.5 µg/mL
- In vitro neutralization IC80 [3]: 0.59 µg/mL
- In vitro neutralization IC80 [4]: 0.047 µg/mL
- In vitro neutralization IC80 [5]: 31.4 µg/mL
- In vitro neutralization IC80 [6]: > 50 µg/mL
- In vitro neutralization IC80 [7]: > 50 µg/mL
- In vitro neutralization IC80 [8]: 0.13 µg/mL
- In vitro neutralization IC80 [9]: 1.07 µg/mL
- In vitro neutralization IC80 [10]: 0.437 µg/mL
- In vitro neutralization IC80 [11]: 0.094 µg/mL
- In vitro neutralization IC80 [12]: > 50 µg/mL
- In vitro neutralization IC80 [13]: 2.79 µg/mL
- In vitro neutralization IC80 [14]: 7.49 µg/mL
- In vitro neutralization IC80 [15]: 0.24 µg/mL
- In vitro neutralization IC80 [16]: 0.29 µg/mL
- In vitro neutralization IC80 [17]: 1.38 µg/mL
- In vitro neutralization IC80 [18]: 22.6 µg/mL
- In vitro neutralization IC80 [19]: > 50 µg/mL
- In vitro neutralization IC80 [20]: 0.035 µg/mL
- In vitro neutralization IC80 [21]: 0.154 µg/mL
- In vitro neutralization IC80 [22]: > 50 µg/mL
- In vitro neutralization IC80 [23]: 0.015 µg/mL
- In vitro neutralization IC80 [24]: 0.196 µg/mL
- In vitro neutralization IC80 [25]: 0.19 µg/mL
- In vitro neutralization IC80 [26]: 0.54 µg/mL
- In vitro neutralization IC80 [27]: 0.61 µg/mL
- In vitro neutralization IC80 [28]: 0.039 µg/mL
- In vitro neutralization IC80 [29]: 0.64 µg/mL
- In vitro neutralization IC80 [30]: 0.053 µg/mL
- In vitro neutralization IC80 [31]: 0.936 µg/mL
- In vitro neutralization IC80 [32]: 0.404 µg/mL
- In vitro neutralization IC80 [33]: 0.447 µg/mL
- In vitro neutralization IC80 [34]: 2.08 µg/mL
- In vitro neutralization IC80 [35]: > 50 µg/mL
- In vitro neutralization IC80 [36]: 0.086 µg/mL
- In vitro neutralization IC80 [37]: > 50 µg/mL
- In vitro neutralization IC80 [38]: 0.734 µg/mL
- In vitro neutralization IC80 [39]: 1.71 µg/mL
- In vitro neutralization IC80 [40]: 0.033 µg/mL
- In vitro neutralization IC80 [41]: 0.5 µg/mL
- In vitro neutralization IC80 [42]: 0.55 µg/mL
- In vitro neutralization IC80 [43]: > 50 µg/mL
- In vitro neutralization IC80 [44]: 0.26 µg/mL
- In vitro neutralization IC80 [45]: 8.22 µg/mL
- In vitro neutralization IC80 [46]: 11.6 µg/mL
- In vitro neutralization IC80 [47]: 0.033 µg/mL
- In vitro neutralization IC80 [48]: 1.21 µg/mL
- In vitro neutralization IC80 [49]: 0.127 µg/mL
- In vitro neutralization IC80 [50]: > 50 µg/mL
- In vitro neutralization IC80 [51]: 0.214 µg/mL
- In vitro neutralization IC80 [52]: 14.2 µg/mL
- In vitro neutralization IC80 [53]: 0.126 µg/mL
- In vitro neutralization IC80 [54]: > 50 µg/mL
- In vitro neutralization IC80 [55]: 0.155 µg/mL
- In vitro neutralization IC80 [56]: 3.44 µg/mL
- In vitro neutralization IC80 [57]: > 50 µg/mL
